The values that follow are results of earlier work, collected in PMC10651016.

In general, pKa refers to the negative logarithm of the acid dissociation constant.

The test system of this data set is Lys110. Put plainly: kinetics. As to conditions: steady-state turnover with L-proline; FAD-bound enzyme.

For the substance “L-proline dehydrogenase (ProDH) (Mycobacterium tuberculosis)”, the pKa is on record as 6.8.
